Substitutions are numbered along the chain they refer to.
Key:
OsPN29956 aa 2-373 = biological target: T1, OsPN29956 aa 2-373 (Oryza sativa, UniProt Q0JJ05 519-890); assay: Y2H; output trait library
T1 construct: prey, AD fusion
T1 sequence: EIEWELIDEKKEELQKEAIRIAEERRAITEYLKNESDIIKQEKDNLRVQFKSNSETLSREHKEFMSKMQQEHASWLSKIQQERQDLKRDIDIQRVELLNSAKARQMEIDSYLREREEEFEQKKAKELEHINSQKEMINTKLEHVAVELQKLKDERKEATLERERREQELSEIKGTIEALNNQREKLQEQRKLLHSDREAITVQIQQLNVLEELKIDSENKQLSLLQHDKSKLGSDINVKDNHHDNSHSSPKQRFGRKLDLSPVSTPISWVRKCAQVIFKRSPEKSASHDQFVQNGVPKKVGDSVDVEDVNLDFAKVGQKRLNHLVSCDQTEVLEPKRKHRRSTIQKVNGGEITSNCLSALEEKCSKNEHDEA
Method in brief: (§1)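 Protein-protein interactions were detected in an automated, high-throughput yeast two-hybrid assay from Myriad Genetics Inc. (Salt Lake City, Utah), with a bait clone encoding a defined amino-acid fragment of a rice protein screened against the input trait or output trait rice prey library. Interacting proteins were identified by BLAST comparison of the encoding sequences of retrieved prey clones against databases.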

OsPN29956 aa 96-235 = biological target: T2, OsPN29956 aa 96-235 (Oryza sativa, UniProt Q0JJ05 613-752); assay: Y2H; output trait library
T2 construct: prey, AD fusion; also called Novel Protein PN29956, Fragment, nuclear matrix constituent
T2 sequence: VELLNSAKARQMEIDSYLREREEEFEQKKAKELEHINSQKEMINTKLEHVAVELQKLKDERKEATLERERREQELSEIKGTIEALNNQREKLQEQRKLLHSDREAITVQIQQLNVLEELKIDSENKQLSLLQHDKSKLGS
Method in brief: as §1

PN29970 aa 1-158 = biological target: T3, PN29970 aa 1-158 (Oryza sativa, UniProt A2WY50 120-277); assay: Y2H; output trait library
T3 construct: prey, AD fusion; also called Putative CorA-like Mg2+ Transporter Protein
T3 sequence: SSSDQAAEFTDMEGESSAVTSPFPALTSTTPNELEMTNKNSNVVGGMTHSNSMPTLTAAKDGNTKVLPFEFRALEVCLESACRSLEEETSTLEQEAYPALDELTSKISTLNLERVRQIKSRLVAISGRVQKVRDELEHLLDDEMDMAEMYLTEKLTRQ
Method in brief: as §1

OsPN23390 aa 595-845 = biological target: T4, OsPN23390 aa 595-845 (Oryza sativa, UniProt Q7XPJ0 617-867); assay: Y2H; output trait library
T4 construct: prey, AD fusion
T4 sequence: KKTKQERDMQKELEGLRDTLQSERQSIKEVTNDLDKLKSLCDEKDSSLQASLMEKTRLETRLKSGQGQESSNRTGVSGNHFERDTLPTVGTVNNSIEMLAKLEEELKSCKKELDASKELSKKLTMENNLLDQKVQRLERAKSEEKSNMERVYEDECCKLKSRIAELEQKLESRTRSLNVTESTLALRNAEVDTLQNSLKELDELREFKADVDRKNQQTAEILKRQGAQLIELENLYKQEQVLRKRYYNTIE
Method in brief: as §1

OsPN23390 aa 576-738 = biological target: T5, OsPN23390 aa 576-738 (Oryza sativa, UniProt Q7XPJ0 598-760); assay: Y2H; output trait library
T5 construct: prey, AD fusion
T5 sequence: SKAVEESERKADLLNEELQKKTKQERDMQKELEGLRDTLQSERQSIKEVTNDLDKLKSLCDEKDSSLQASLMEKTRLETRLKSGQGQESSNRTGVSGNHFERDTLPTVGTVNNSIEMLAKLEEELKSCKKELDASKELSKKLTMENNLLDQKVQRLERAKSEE
Method in brief: as §1

OsPN29969 aa 16-123 = biological target: T6, OsPN29969 aa 16-123 (Oryza sativa, UniProt A2XK00 17-123); assay: Y2H; output trait library
T6 construct: prey, AD fusion; also called Novel Protein PN29969, Similar to A. thaliana Unknown Protein BAB01990
T6 sequence: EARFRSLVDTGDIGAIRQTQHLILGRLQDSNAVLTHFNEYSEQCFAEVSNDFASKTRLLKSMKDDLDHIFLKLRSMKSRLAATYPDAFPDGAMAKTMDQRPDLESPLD
Method in brief: as §1

OsPN25381 aa 30-218 = biological target: T7, OsPN25381 aa 30-218 (Oryza sativa, UniProt A3BV82 165-353); assay: Y2H; output trait library
T7 construct: prey, AD fusion; also called Protein 13357265 Putative CorA-like Mg2+ Transporter Protein
T7 sequence: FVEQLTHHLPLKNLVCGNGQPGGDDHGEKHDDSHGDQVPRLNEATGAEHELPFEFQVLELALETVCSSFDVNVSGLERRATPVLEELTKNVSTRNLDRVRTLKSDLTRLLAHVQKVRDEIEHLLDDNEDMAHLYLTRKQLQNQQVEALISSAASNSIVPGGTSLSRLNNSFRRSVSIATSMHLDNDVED
Method in brief: as §1

OsPN29965 aa 12-124 = biological target: T8, OsPN29965 aa 12-124 (Oryza sativa, UniProt Q6YZ52 874-986); assay: Y2H; output trait library
T8 construct: prey, AD fusion; also called Novel Protein PN29965, Fragment, Similar to A. thaliana Kinesin (Centromere Protein)-Like Heavy Chain-Like Protein
T8 sequence: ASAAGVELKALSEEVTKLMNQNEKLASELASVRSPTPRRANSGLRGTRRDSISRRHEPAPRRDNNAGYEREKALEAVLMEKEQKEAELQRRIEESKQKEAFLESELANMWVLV
Method in brief: as §1

OsMADS1 aa 74-172 = biological target: T9, OsMADS1 aa 74-172 (Oryza sativa, UniProt A2XDY1 74-172); assay: Y2H; input trait library
T9 construct: prey, AD fusion; also called PN19788
T9 sequence: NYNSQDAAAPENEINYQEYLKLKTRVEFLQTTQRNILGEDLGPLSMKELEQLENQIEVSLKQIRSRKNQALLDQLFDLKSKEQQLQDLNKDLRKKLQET
Method in brief: as §1

OsMADS6 aa 70-250 = biological target: T10, OsMADS6 aa 70-250 (Oryza sativa, UniProt Q6EU39 70-250); assay: Y2H; output trait library
T10 construct: prey, AD fusion; also called PN20233; O. sativa MADS box protein MADS6
T10 sequence: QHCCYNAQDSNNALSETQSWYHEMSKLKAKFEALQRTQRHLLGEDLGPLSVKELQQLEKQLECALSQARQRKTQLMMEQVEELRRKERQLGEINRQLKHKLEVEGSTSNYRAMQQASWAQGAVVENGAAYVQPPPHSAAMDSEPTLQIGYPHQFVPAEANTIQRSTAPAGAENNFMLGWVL
Method in brief: as §1

OsRAP1B aa 1-158 = biological target: T11, OsRAP1B aa 1-158 (Oryza sativa, UniProt Q10CQ1 1-158); assay: Y2H; output trait library
T11 construct: prey, AD fusion; also called PN20232; O. sativa AP1-like MADS box protein RAP1B
T11 sequence: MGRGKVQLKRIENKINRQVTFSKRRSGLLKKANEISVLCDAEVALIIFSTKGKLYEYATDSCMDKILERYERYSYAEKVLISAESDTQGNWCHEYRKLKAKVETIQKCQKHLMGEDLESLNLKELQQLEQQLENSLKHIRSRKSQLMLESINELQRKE
Method in brief: as §1

OsMADS1 aa 71-257 = biological target: T12, OsMADS1 aa 71-257 (Oryza sativa, UniProt A2XDY1 71-257); assay: Y2H; output trait library
T12 construct: prey, AD fusion; also called PN19788
T12 sequence: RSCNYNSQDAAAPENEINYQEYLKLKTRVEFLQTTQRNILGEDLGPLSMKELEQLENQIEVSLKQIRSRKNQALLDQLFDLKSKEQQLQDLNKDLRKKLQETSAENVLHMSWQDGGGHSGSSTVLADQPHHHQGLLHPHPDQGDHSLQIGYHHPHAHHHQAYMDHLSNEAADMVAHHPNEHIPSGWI
Method in brief: as §1

OsMADS1 aa 82-241 = biological target: T13, OsMADS1 aa 82-241 (Oryza sativa, UniProt A2XDY1 82-241); assay: Y2H; output trait library
T13 construct: prey, AD fusion; also called PN19788; O. sativa MADS box protein MADS1
T13 sequence: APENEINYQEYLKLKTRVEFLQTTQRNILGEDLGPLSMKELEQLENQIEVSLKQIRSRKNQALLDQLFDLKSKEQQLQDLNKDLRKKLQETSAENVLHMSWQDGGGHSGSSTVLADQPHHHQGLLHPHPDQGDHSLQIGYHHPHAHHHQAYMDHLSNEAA
Method in brief: as §1

OsFDRMADS6 aa 93-244 = biological target: T14, OsFDRMADS6 aa 93-244 (Oryza sativa, UniProt P0C5B1 93-244); assay: Y2H; output trait library
T14 construct: prey, AD fusion; also called PN19766
T14 sequence: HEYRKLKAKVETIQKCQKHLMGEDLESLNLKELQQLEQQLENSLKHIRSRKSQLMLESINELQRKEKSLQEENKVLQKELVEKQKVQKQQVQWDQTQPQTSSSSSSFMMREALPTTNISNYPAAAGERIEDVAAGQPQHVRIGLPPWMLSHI
Method in brief: as §1

OsFDRMADS8 aa 94-230 = biological target: T15, OsFDRMADS8 aa 94-230 (Oryza sativa, UniProt A2Z9Q7 94-230); assay: Y2H; output trait library
T15 construct: prey, AD fusion; also called PN20698
T15 sequence: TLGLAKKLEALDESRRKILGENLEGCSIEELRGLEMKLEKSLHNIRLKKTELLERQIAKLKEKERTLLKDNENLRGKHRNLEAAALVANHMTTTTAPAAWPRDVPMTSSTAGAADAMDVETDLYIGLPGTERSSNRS
Method in brief: as §1

OsMADS8 aa 127-248 = biological target: T16, OsMADS8 aa 127-248 (Oryza sativa, UniProt Q9SAR1 127-248); assay: Y2H; output trait library
T16 construct: prey, AD fusion; also called PN20778
T16 sequence: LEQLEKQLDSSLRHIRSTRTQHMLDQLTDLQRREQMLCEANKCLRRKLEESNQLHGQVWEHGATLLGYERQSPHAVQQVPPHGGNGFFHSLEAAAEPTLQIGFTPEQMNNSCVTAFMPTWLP
Method in brief: as §1

OsFDRMADS6 aa 100-246 = biological target: T17, OsFDRMADS6 aa 100-246 (Oryza sativa, UniProt P0C5B1 100-246); assay: Y2H; output trait library
T17 construct: prey, AD fusion; also called PN19766
T17 sequence: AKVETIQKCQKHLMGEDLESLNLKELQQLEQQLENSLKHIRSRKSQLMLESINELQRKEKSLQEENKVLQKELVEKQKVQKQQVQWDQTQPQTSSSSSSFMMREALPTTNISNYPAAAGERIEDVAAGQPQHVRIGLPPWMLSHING
Method in brief: as §1

OsMADS1 aa 95-257 = biological target: T18, OsMADS1 aa 95-257 (Oryza sativa, UniProt A2XDY1 95-257); assay: Y2H; input trait library
T18 construct: prey, AD fusion; also called PN19788
T18 sequence: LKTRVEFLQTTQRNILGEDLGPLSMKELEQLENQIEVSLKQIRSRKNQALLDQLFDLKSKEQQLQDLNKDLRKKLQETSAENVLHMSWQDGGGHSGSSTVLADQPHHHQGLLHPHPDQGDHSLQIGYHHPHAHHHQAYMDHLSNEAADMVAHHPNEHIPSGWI
Method in brief: as §1

OsFDRMADS8 aa 69-233 = biological target: T19, OsFDRMADS8 aa 69-233 (Oryza sativa, UniProt A2Z9Q7 69-233); assay: Y2H; input trait library
T19 construct: prey, AD fusion; also called PN20698
T19 sequence: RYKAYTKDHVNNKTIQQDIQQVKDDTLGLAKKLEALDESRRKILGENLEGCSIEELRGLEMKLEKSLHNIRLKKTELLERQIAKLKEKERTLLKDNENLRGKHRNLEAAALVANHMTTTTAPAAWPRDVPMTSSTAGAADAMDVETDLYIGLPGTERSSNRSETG
Method in brief: as §1

Measured: binding result

B1: OsCYCOS2 aa 50-233 (other)
chain: KRGLLDKPAAKNQSGHRPMTRKFAATLANQPSIAPLAPIGSERQKRTADSAFHGPADMECTKITSDDLPLPMMSEMDEVMGSELKEIEMEDIEEAAPDIDSCDANNSLAVVEYVDEIYSFYRRSEGLSCVSPNYMLSQNDINEKMRGILIDWLIEVHYKLELLDETLFLTVNIIDRFLARENVV
notes: bait, Gal4 DBD fusion; also called PN20257; O. sativa Cyclin OsCYCOS2
binds: OsPN29956 aa 2-373 | OsPN29956 aa 96-235 | PN29970 aa 1-158 | OsPN23390 aa 595-845 | OsPN23390 aa 576-738 | OsPN29969 aa 16-123 | OsPN25381 aa 30-218 | OsPN29965 aa 12-124

B2: OsRAP1B aa 65-200 (other)
chain: KILERYERYSYAEKVLISAESDTQGNWCHEYRKLKAKVETIQKCQKHLMGEDLESLNLKELQQLEQQLENSLKHIRSRKSQLMLESINELQRKEKSLQEENKVLQKELVEKQKVQKQQLQWDQTQPQTISSSSSFM
notes: bait, Gal4 DBD fusion; also called PN20232
binds: OsMADS1 aa 74-172

B3: OsMADS45 aa 50-198 (other)
chain: NRGKLYEFCSTQSMTKTLEKYQKCSYAGPETAVQNRESEQLKASRNEYLKLKARVENLQRTQRNLLGEDLDSLGIKELESLEKQLDSSLKHVRTTRTKHLVDQLTELQRKEQMVSEANRCLRRKLEESNHVRGQQVWEQGCNLIGYERQ
notes: bait, Gal4 DBD fusion; also called PN20231; O. sativa MADS box protein MADS45
binds: OsMADS6 aa 70-250 | OsRAP1B aa 1-158 | OsMADS1 aa 71-257 | OsMADS1 aa 82-241 | OsFDRMADS6 aa 93-244

B4: OsRAP1B aa 100-247 (other)
chain: T17 sequence with V84L, S94I, A126P
notes: as for B2
binds: OsFDRMADS8 aa 94-230 | OsMADS8 aa 127-248 | OsFDRMADS6 aa 100-246 | OsMADS1 aa 95-257 | OsFDRMADS8 aa 69-233

— patent US20060253917A1 (published 2006)
